From patent US20030119716A1, “Methods for screening, treating and diagnosing G-protein coupled receptor-related disorders and compositions thereof” (Wyeth, priority 2001, published 2003)

Columns and labels:
Gαq/i chimera = assay: cell-based or functional assay
Gαi1 = assay: cell-based or functional assay

reduction in SRE activation (SRE-luciferase reporter, CHO-D2R cells) (Gαq/i chimera) [%] | inhibition of SRE activation (SRE-luciferase reporter, all quinpirole concentrations, CHO-D2R cells) (Gαi1) [%] | reduction in quinpirole-stimulated SRE activation (SRE-luciferase reporter, 100 nM quinpirole, CHO-D2R cells) (Gαi1) [%] | attenuation of SRE activation (SRE-luciferase reporter, CHO-D2R cells co-transfected with Gαi1) (Gαi1) [%] | Substance
60 | > 80 | 85 |  | human RGS4 (from UniProt P49798 1-205)
 |  |  | 25 to 30 | human RGSz1 (from UniProt O76081 1-388)
